{
  "source": "patent US6875599B2",
  "about": "“Mammalian secreted group III phospholipase A2” (Centre National de la Recherche Scientifique - CNRS, priority 2000, dated 2005)",
  "molecules": {"B1": {"name": "hGIII sPLA2: novel human secreted group III phospholipase A2, SEQ ID No. 2, expressed recombinantly in COS cells and partially purified on Q-Sepharose (protein, listed as Homo sapiens)", "chain": "MGVQAGLFGMLGFLGVALGGSPALRWYRTSCHLTKAVPGNPLGYLSFLAKDAQGLALIHARWDAHRRLQACSWEDEPELTAAYGALCAHETAWGSFIHTPGPELQRALATLQSQWEACRALEESPAGARKKRAAGQSGVPGGGHQREKRGWTMPGTLWCGVGDSAGNSSELGVFQGPDLCCREHDRCPQNISPLQYNYGIRNYRFHTISHCDCDTRFQQCLQNQHDSISDIVGVAFFNVLEIPCFVLEEQEACVAWYWWGGCRMYGTVPLARLQPRTFYNASWSSRATSPTPSSRSPAPPKPRQKQHLRKGPPHQKGSKRPSKANTTALQDPMVSPRLDVAPTGLQGPQGGLKPQGARWVCRSFRRHLDQCEHQIGPREIEFQLLNSAQEPLFHCNCTRRLARFLRLHSPPEVTNMLWELLGTTCFKLAPPLDCVEGKNCSRDPRAIRVSARHLRRLQQRRHQLQDKGTDERQPWPSEPLRGPMSFYNQCLQLTQAARRPDRQQKSWSQ"}},
  "key": {"[1]": {"assay": "pH-rate profile for the hydrolysis of phosphatidylcholine", "type": "biochemical, human", "conditions": "Q-Sepharose purified hGIII sPLA2", "source_text": "(§1) FIG. 4 presents the enzymatic properties of hGIII sPLA2. A, Ca^2+ dependency of the hydrolysis of 1 -palmitoyl-2-(10-pyrenedecanoyl)-sn-glycerol-3- phosphomethanol vesicles by Q-sepharose purified hGIII sPLA2. B, pH dependency of the hydrolysis of phosphatidylcholne vesicles by Q-Sepharose purified gGIII sPLA2. Studies to measure the initial rate of hydrolysis of small unilamellar vesicles of phosphatidylglycerol (1-palmitoyl-2-([9,10[^3H])-palmitoyl-sn-glycero-3-phosphoglycerol in 1-palmitoyl-2-oleoyl-sn-glycero-3-phosphoglycerol at 50 Ci/mol) and phosphatidylcholine (1-palmitoyl-2-([9,10[^3H])-palmitoyl-sn-glycero-3-phosphocholine, 50 Ci/mol) were carried as described (8) using Q-Sepharose purified hGIII sPLA2. Initial rates were calculated from 3 time points in the linear portion of the product versus time curve. pH-rate profiles for the hydrolysis of phosphatidylcholine were obtained as described (8). The Ca^2+ dependency of phospholipid hydrolysis was carried out with the fluorimetric assay (described above) with 10 μM EGTA (no Ca^2+) or with CaCl2 in excess of EGTA to give 10-650 μM Ca^2+."}, "[2]": {"assay": "Initial rate of hydrolysis of small unilamellar vesicles of phosphatidylglycerol and phosphatidylcholine", "type": "biochemical, human", "conditions": "Q-Sepharose purified hGIII sPLA2; data not shown", "procedure": "as §1, with “Studies” for “FIG. 4 presents the enzymatic properties of hGIII sPLA2. A, Ca^2+ dependency of the hydrolysis of 1 -palmitoyl-2-(10-pyrenedecanoyl)-sn-glycerol-3- phosphomethanol vesicles by Q-sepharose purified hGIII sPLA2. B, pH dependency of the hydrolysis of phosphatidylcholne vesicles by Q-Sepharose purified gGIII sPLA2. Studies”"}},
  "data": [
    {"molecule": "B1", "values": [
      {"measurement": "pH of optimal activity on phosphatidylcholine vesicles", "setting": "[1]", "value": 8, "unit": "pH"},
      {"measurement": "Activity on anionic phosphatidylglycerol vesicles versus zwitterionic phosphatidylcholine vesicles, based on initial velocities", "setting": "[2]", "value": 11, "unit": "fold"}
    ]}
  ]
}
